Where a chain is given by its changes, count along the chain named. Each block holds one molecule with its values, some of them ahead of it.
How the values were obtained:
[1] = target: human Folate Receptor Alpha (FOLR1) on cells (human) (UniProt P15328); test: saturation binding on IGROV-1 cells, bound against free antibody (Scatchard analysis per paragraph 239)
[2] = target: human Folate Receptor Alpha (FOLR1) on cells (human) (UniProt P15328); test: cell-based or functional assay
[3] = target: T1, human Folate Receptor Alpha (FOLR1) on cells (human, UniProt P15328 25-234); test: flow cytometry, CHO cells stably expressing human FOLR1
T1 construct: whole, on cells; Endogenous on IGROV-1, OVCAR-3, SKOV-3, HT-29 cells; transfected on CHO cells; the cell is named under assay; also called FRα; FRa
T1 sequence (P15328 25-234): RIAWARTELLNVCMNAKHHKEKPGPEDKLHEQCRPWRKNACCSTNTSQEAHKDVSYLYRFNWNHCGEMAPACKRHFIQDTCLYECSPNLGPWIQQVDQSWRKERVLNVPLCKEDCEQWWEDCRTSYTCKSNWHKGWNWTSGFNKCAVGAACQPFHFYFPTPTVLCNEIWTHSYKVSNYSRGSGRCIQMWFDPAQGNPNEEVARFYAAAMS

mouse FOLR1 on CHO cells = target: T2, mouse FOLR1 on CHO cells (mouse, UniProt P35846 25-232); test: flow cytometry on CHO cells stably expressing mouse FOLR1, MFI fold over background
T2 construct: whole, on cells; also called msFOLR1
T2 sequence (P35846 25-232): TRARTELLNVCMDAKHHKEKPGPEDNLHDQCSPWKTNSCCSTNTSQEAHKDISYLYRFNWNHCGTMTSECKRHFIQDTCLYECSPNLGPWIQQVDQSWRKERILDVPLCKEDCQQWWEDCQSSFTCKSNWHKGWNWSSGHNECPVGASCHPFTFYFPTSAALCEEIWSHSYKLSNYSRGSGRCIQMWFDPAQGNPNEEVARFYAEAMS
Protocol: IGROV-1 cells, OVCAR-3 cells, CHO cells stably expressing human FOLR1, CHO cells stably expressing cyno FOLR1, and CHO cells stably expressing mouse FOLR1 were incubated with increasing amounts of the indicated antibodies, and binding characteristics were analyzed. Data are presented in FIG. 1, panels A-E, as MFI fold over background.

[4] = target: T3, FOLR3 (folate receptor gamma) (UniProt P41439 23-245, limits assumed); test: BLI (Octet)
T3 construct: also called FRγ
T3 sequence (P41439 23-245 limits assumed): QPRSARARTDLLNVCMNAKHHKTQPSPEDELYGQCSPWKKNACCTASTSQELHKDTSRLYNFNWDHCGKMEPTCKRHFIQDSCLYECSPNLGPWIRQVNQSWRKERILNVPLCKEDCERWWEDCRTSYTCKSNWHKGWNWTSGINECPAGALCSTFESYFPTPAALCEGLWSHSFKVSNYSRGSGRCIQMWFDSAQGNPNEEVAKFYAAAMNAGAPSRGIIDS

[5] = target: T1, human Folate Receptor Alpha (FOLR1) on …; test: cell binding, CHO cells stably expressing human FOLR1
cyno FOLR1 on CHO cells [6] = target: T4, cyno FOLR1 on CHO cells (cyno (Cynomolgus macaque), UniProt A0A2K5U044 25-234); test: flow cytometry, CHO cells stably expressing cyno FOLR1
T4 construct: whole, on cells; also called cyFOLR1
T4 sequence (A0A2K5U044 entry or part of it): as the sequence (P15328 25-234) above, with I2T, W4R, R37K, A146P, H171Y counted along it

recombinant human FOLR1 = recombinant human FOLR1 (human, UniProt P15328 25-234); test: BLI, Octet QK-384, recombinant human FOLR1
Sequence of recombinant human FOLR1 (P15328 25-234 limits assumed): as the sequence (P15328 25-234) above
Protocol: As used herein, the “Kd” or “Kd value” refers to a dissociation constant determined by BioLayer Interferometry, using an Octet QK384 instrument (Fortebio Inc., Menlo Park, CA) in kinetics mode. For example, anti-mouse Fc sensors are loaded with mouse-Fc fused antigen and then dipped into antibody-containing wells to measure concentration dependent association rates (kon). Antibody dissociation rates (koff) are measured in the final step, where the sensors are dipped into wells containing buffer only. The Kd is the ratio of koff/kon. (For further details see, Concepcion, J, et al., Comb Chem High Throughput Screen, 12 (8), 791-800, 2009).
Table 17 summarizes affinity and epitope bin information for anti-FOLR1 heavy chain antibodies (HCAbs). Column 1 indicates the clone ID of the HCAb. Column 2 indicates the affinity of the HCAb to recombinant human FOLR1 as measured by Bio-layer interferometry (BLI) using an Octet QK-384. Column 3 indicates the epitope bin of HCAb as determined by a competition BLI binding experiment using an Octet QK-384.

[7] = target: T1, human Folate Receptor Alpha (FOLR1) on …; test: cell binding, OVCAR-3 cells
[8] = target: T1, human Folate Receptor Alpha (FOLR1) on …; test: cell binding, IGROV-1 cells
cyno FOLR1 on CHO cells [9] = target: T4, cyno FOLR1 on CHO cells; test: cell binding, CHO cells stably expressing cyno FOLR1

Sequence of human Folate Receptor Alpha (FOLR1) on cells (human) (P15328 25-234): as above

Molecule: TNB-928B, fully human bispecific antibody that binds to FOLR1 (FRα) and CD3
EC50 (read off the curve) [1]: 6 nM
EC50 of ex vivo tumor cell lysis (dissociated ovarian tumor sample) [2]: 0.0452 nM
maximum tumor cell lysis (IGROV-1 cells with human pan T-cells, 48 hours) [2]: 75%

B3: anti-FOLR1 heavy chain antibody (HCAb, UniAb) clone ID 358589 (antibody, V domains shown)
VH: EVQLVESGGGLVQPGGSLRLSCAASGFSFSSYSMKWVRQAPGKGLEWVSYISSSSDTIEYADSVKGRFTISRDNAKNSLYLMNSLRDEDTAVYYCASVGLDFDYRGQGTLVTVSS
notes: Heavy chain-only antibody (no light chain), F18 family
fold over background MFI [3]: 1580 fold over background
binding result (mouse FOLR1 on CHO cells): no binding (tested: 100 nM (log[nM] 2))
EC50 [5]: 3.3 nM
fold over background MFI (cyno FOLR1 on CHO cells [6]): 996 fold over background
Kd (recombinant human FOLR1): 22.3 nM
EC50 [7]: 0.9 nM
EC50 [8]: 3.7 nM
EC50 (cyno FOLR1 on CHO cells [9]): 1.9 nM

Results, then the molecule that gave them:

fold over background MFI [3]: 1890 fold over background
binding result (mouse FOLR1 on CHO cells): no binding (tested: 100 nM (log[nM] 2))
binding result [4]: no binding
EC50 [5]: 1.9 nM
fold over background MFI (cyno FOLR1 on CHO cells [6]): 1010 fold over background
Kd (recombinant human FOLR1): 22.7 nM
EC50 [7]: 0.6 nM
EC50 [8]: 2.6 nM
EC50 (cyno FOLR1 on CHO cells [9]): 2.4 nM
B1: anti-FOLR1 heavy chain antibody (HCAb, UniAb) clone ID 358598 (antibody, V domains shown)
VH: EVQLVESGGGLVQPGGSLRLSCAASGFSFSSYSMNWVRQAPGKGLEWVSYITSSSDTIEYADSVKGRFTISRDNAKNSLYLQMNSLRDEDTAVYYCASVGLDFDYRGQGTLVTVSS
notes: as for B3

fold over background MFI [3]: 886 fold over background
binding result (mouse FOLR1 on CHO cells): no binding (tested: 100 nM (log[nM] 2))
binding result [4]: no binding
EC50 [5]: 1.9 nM
fold over background MFI (cyno FOLR1 on CHO cells [6]): 735 fold over background
Kd (recombinant human FOLR1): 26.8 nM
EC50 [7]: 0.7 nM
EC50 [8]: 2.1 nM
EC50 (cyno FOLR1 on CHO cells [9]): 2.7 nM
B2: anti-FOLR1 heavy chain antibody (HCAb, UniAb) clone ID 358614 (antibody, V domains shown)
VH: B1 VH with N35K, T52S, S53R
notes: as for B3

Source: patent US20240002498A1 (TENEOBIO, published 2024)
